# Source: patent publication US10112983B2, “Neuregulin variants and methods of screening and using thereof” (Zensun (Shanghai) Science & Technology, Co., Ltd., priority 2005, dated 2018)
# Key:
# [1] = target: T1, ErbB2&ErbB3 co-expressing COS 7 cells (Homo sapiens, UniProt P21860); test: Receptor binding affinity assay (competition of bound radiolabeled ligand) on COS7 cells; settings: for receptor binding affinity compared with neuregulin: ErbB2&ErbB3 co-expressing cells; for EC50: Table 7 (footnote defines KD), read-out: EC50, COS7 cells (ErbB2&ErbB3 co-expression)
# T1 construct: expressed in transfected cells; host or cells: COS 7
# Method: (§1) To study the receptor binding affinity of neuregulin and its mutations, ErbB2&ErbB3 or ErB2&ErB4 co-expressing COS 7 are used. The cells are grown to 80% confluence. In the afternoon, after the cells reach 80% confluence, the media is changed to serum free media.
# [2] = target: T2, ErbB2&ErbB4 co-expressing COS 7 cells (Homo sapiens, UniProt Q15303); test: as above; settings: for receptor binding affinity compared with neuregulin: ErbB2&ErbB4 co-expressing cells; for EC50: Table 7 (footnote defines KD), read-out: EC50, COS7 cells (ErbB2&ErbB4 co-expression)
# T2 construct: expressed in transfected cells; host or cells: COS 7
# Method: as §1
# [3] = target: T1, ErbB2&ErbB3 co-expressing COS 7 cells; test: Signal transduction: AKT phosphorylation by western blot; assay type: cell-based; settings: 10 minutes
# Method: (§2) Similarly, to study the signal transduction ability of neuregulin and its mutations, ErbB2&ErbB3 or ErbB2&ErbB4 co-expressing COS 7 cells are used. The cells are grown to 80% confluence. In the afternoon, after the cells reach 80% confluence, the media is changed to serum free media. Then after 24 hours, different amounts of neuregulin or neuregulin variants are added into separate wells containing the cells. After 10 minutes, loading buffer is added to lyse the cells. The sample is then harvested and loaded into a separate well of gel for electrophoresis and western blot analysis.
# [4] = target: T2, ErbB2&ErbB4 co-expressing COS 7 cells; test: as above; assay type: cell-based; settings: 10 minutes
# Method: as §2
EC50 [1] [µM],receptor binding affinity compared with neuregulin [2],EC50 [2] [µM],AKT phosphorylation compared with neuregulin [3],AKT phosphorylation compared with neuregulin [4],Molecule,receptor binding affinity compared with neuregulin [1]
1.15,much lower,1.06,less AKT phosphorylation than neuregulin,more AKT phosphorylation than neuregulin,L3A: neuregulin fragment (177-237) with alanine substitution for the 3rd amino acid (protein) SHAVKCAEKEKTFCVNGGECFMVKDLSNPSRYLCKCPNEFTGDRCQNYVMASFYKAEELYQ,nearly the same receptor binding affinity
,much higher,,less AKT phosphorylation than neuregulin,more AKT phosphorylation than neuregulin,D43A: neuregulin fragment (177-237) with alanine substitution for the 43rd amino acid (protein) SHLVKCAEKEKTFCVNGGECFMVKDLSNPSRYLCKCPNEFTGARCQNYVMASFYKAEELYQ,nearly the same receptor binding affinity
1.41,,0.282,,,"NRG: the 177-237 amino acids fragment of neuregulin1β2 (SEQ ID NO:1) (protein, listed as Homo sapiens) SHLVKCAEKEKTFCVNGGECFMVKDLSNPSRYLCKCPNEFTGDRCQNYVMASFYKAEELYQ",

Molecule,EC50 [1] [µM],receptor binding affinity compared with neuregulin [2],EC50 [2] [µM],AKT phosphorylation compared with neuregulin [3],AKT phosphorylation compared with neuregulin [4],receptor binding affinity compared with neuregulin [1]
"8A47A: neuregulin double mutant, simultaneous alanine substitutions for the 8th and 47th amino acids of the neuregulin fragment (protein) SHLVKCAAKEKTFCVNGGECFMVKDLSNPSRYLCKCPNEFTGDRCQAYVMASFYKAEELYQ",,,,nearly same AKT phosphorylation as neuregulin,much more AKT phosphorylation than neuregulin,
